Source: US8192734B2, “Compositions and methods for bone strengthening” (Cornell University, priority 2007, dated 2012)

Tests used:
Assay type in all cases: in vivo, pig
[1] = test system: pigs fed P-adequate corn-soybean meal basal diet; test: Expt 2: metatarsal and femur breaking strength, three-point bending test; details: main effect, phytase 2,000 U/kg or Sr 50 mg/kg
Procedure: Third and 4th metatarsals in both experiments and femur (right leg) in Experiment 2 were prepared by manually removing surrounding skin, muscle and other tissues. Bones were stored in closed plastic bags at 4° C. until strength analysis. Maximal breaking load was measured using an Instron 4500 Machine (Canton, Mass.) at room temperature (23° C.) by subjecting each bone to a three-point bending test^(28). During mechanical tests, force was applied to the center of the bone held by supports 2.0 cm apart for metatarsals and 3.3 cm apart for femur. The crosshead speed was set at 50 mm/min and the sample rate was 10 points/s. Final strength was determined from load-displacement curves indicating the maximum loads. The metatarsal breaking strength was expressed as the mean strength of four bones from both left and right feet of pigs in Experiment 1, and as the mean of the two bones from the right foot of pigs in Experiment 2.

[2] = test system: weanling pigs fed high P diet; test: Examples 4-8: femoral and metacarpal mechanical properties, dimensions, cortical thickness; details: 8 wk
Procedure: As in Examples 1-3, the animal protocol was approved by Cornell Animal Care and Use Committee. An 8-week feeding trial was conducted at Cornell University Swine Research Farm. […] Group 2 were fed a corn-soy basal diet (BD)+0.25% inorganic phosphorus (iP, dicalcium phosphate). Group 2 were fed BD+0.35% iP. […] The BD (Table 7) contained adequate levels of all nutrients except for P^(63), and 0.25% iP is the supplementation level recommended by NRC^(24) to meet the P needs of this age of pigs. […] Pigs were housed in an environmentally-controlled barn (20-25° C.; 12-light: 12-dark cycle), and given free access to feed and water.
Growth performance of pigs was monitored at two week intervals. Blood samples of all individual pigs (fasted overnight for 8 h) were collected at initial (week 0) and then bi-weekly from the anterior vena cava using 5-mL heparin syringes to assay for concentrations of plasma iP^(73), Ca and Sr^(63). At the end of experiment, 5 pigs (2 male and 3 female) from each group were killed by electrical stunning and exsanguination. Both left and front right legs from each animal were removed from the body.
After the skin and major muscles were removed, two left legs were subjected to X-ray radiography using a Faxitron machine (Model 43855A; Hewlett Packard, McMinnville, Oreg., USA). Bone radiographs of femur and metacarpals were quantified by the kodac software. The software counted the total number of pixels. Thereafter, the 3rd and 4th metacarpals and femurs were collected to measure length, weight, height, and width after removing the remaining muscle and connective tissue. After the X-ray analysis, the two left legs were used for bone mechanical and mineral testing. Bone mechanical properties were determined by a three-point bending test (ASAE Standard S459 1992) using an Instron 4500 Machine Universal Testing Instrument (Model 1122, Instron, Canton, Mass.) with Instron Series IX Automated Materials Testing System Software (version 4.05). During testing, force was applied to the center of the bone held by supports 2.0 cm apart for metacarpals and 3.3 cm apart for femurs. The crosshead speed was set at 50 mm/min and the sampling rate was at 10 points/sec. The extrinsic parameters (stiffness/slope, maximum load, energy to break, maximum displacement) were derived from the force-displacement curve. Bone breaking strength was calculated with the adjustment of bone weight, and the average strength of the 3rd and 4th metacarpal was used as the metacarpal strength for each pig.
After the above mechanical tests, midshaft sections of both femur and metacarpus were cut and washed with de-ionized water. The cortical thickness of both bones was measured by slide caliper in the midshaft. Cortical and cancellous bones were separated for total ash and mineral analysis. A 3-cm long and 3-mm thick midshaft of femur and 1-cm long and 1.5-mm thick midshaft of metacarpus were used for cortical ash analysis. For cancellous bone, sponge-like bone from 3-cm below the growth plate of femur and 1.5-cm below the growth plate of metacarpus were collected. For ash analysis, bones were oven-dried at 110° C. for 24 h, and incinerated in a muffle furnace at 550° C. for 96 h. Concentrations of individual elements in the ash were measured using inductively coupled argon plasma spectrophotometer (ICAP 61E Trace Analyzer, Thermo Jarell Ash corporation, Franklin, Mass.)^(63), and were expressed on ash basis.

[3] = test system: pigs fed P-adequate corn-soybean meal basal diet; test: Expt 2: BMC, BMD and bone area by dual energy X-ray absorptiometry
Procedure: In Experiment 2, bone mineral content (BMC, g) and bone mineral density (BMD, g/cm^2) of 3rd and 4th metatarsals from the left foot and femur from the left leg of each pig were measured. After being thawed to room temperature, entire bones were placed on a rice bag (to remove background effects) and scanned by dual energy X-ray absorptiometry using the GE Lunar Prodigy instrument (GE Lunar, Prodigy, Madison Wis.) in the small animal scan mode. Values of BMC and BMD were predicted by analysis of scans using Prodigy software (version 10.10.038).

[4] = test system: pigs fed P-adequate corn-soybean meal basal diet; test: Expt 2: metatarsal and femur mineral concentrations (ICP)
Procedure: After the breaking strength analysis, samples (˜100 to 200 mg) of metatarsals in both experiments and femur in Experiment 2 from the right legs were used for mineral analysis. Cortical bones were isolated after removing attached connective tissue using a stainless steel scalpel and collecting individual shards using needle-nosed pliers with plastic-covered clamps. […] Concentrations of individual elements in the dried bone samples were measured using inductively coupled argon plasma spectrophotometer (ICAP 61E Trace Analyzer, Thermo Jarell Ash corporation, Franklin, Mass.)(31). Samples were digested in a mixture of HNO3 and HClO4 (9:1, vol/vol), and then diluted in 5% HNO3 before analysis.

[5] = 0.35% iP + Sr 50 mg/kg + phytase 3,400 U/kg, P<0.05
[6] = length x width by DXA, diets with phytase
[7] = main effect, phytase 2,000 U/kg or Sr 50 mg/kg
[8] = phytase 2000 U/kg and/or Sr 50 mg/kg, n=6

B1: Phytase: Escherichia coli AppA2 phytase (OptiPhos, JBS United, Inc.), added to diets at feed mixing; AppA2 is SEQ ID NO: 2 (protein, listed as Escherichia coli)
chain: MKAILIPFLSLLIPLTPQSAFAQSEPELKLESVVIVSRHGVRAPTKATQLMQDVTPDAWPTWPVKLGWLTPRGGELIAYLGHYQRQRLVADGLLAKKGCPQPGQVAIIADVDERTRKTGEAFAAGLAPDCAITVHTQADTSSPDPLFNPLKTGVCQLDNANVTDAILSRAGGSIADFTGHRQTAFRELERVLNFSQLNLCLNREKQDESCSLTQALPSELKVSADNVSLTGAVSLASMLTEIFLLQQAQGMPEPGWGRITDSHQWNTLLSLHNAQFYLLQRTPEVARSRATPLLDLIMAALTPHPPQKQAYGVTLPTSVLFIAGHDTNLANLGGALELNWTLPGQPDNTPPGGELVFERWRRLSDNSQWIQVSLVFQTLQQMRDKTPLSLNTPPGEVKLTLAGCEERNAQGMCSLAGFTQIVNEARIPACSL
Question: Which results are given for B1?
Answer: improvement in breaking strength of femur [1]: 20%; improvement in breaking strength of metatarsals [1]: 16%; greater cortical bone thickness of femur vs 0.35% iP [2, 5]: 32%; greater cortical bone thickness of metacarpus vs 0.35% iP [2, 5]: 7%; greater energy to break of femur vs 0.35% iP [2, 5]: 26%; greater energy to break of metacarpus vs 0.35% iP [2, 5]: 14%; greater maximal load of femur vs 0.35% iP [2, 5]: 38%; greater maximal load of metacarpus vs 0.35% iP [2, 5]: 20%; greater stiffness of femur vs 0.35% iP [2, 5]: 12%; greater stiffness of metacarpus vs 0.35% iP [2, 5]: 8%; femoral Cross-sectional area ([2]; 0.35% iP + phytase 3400 U, n=5): 199.7 mm^2; femoral Height ([2]; 0.35% iP + phytase 3400 U, n=5): 21.8 mm; femoral Length ([2]; 0.35% iP + phytase 3400 U, n=5): 143.7 mm; femoral Max. Displacement ([2]; 0.35% iP + phytase 3400 U, n=5): 4.9 mm; femoral Weight ([2]; 0.35% iP + phytase 3400 U, n=5): 202.2 g; femoral Width ([2]; 0.35% iP + phytase 3400 U, n=5): 23.3 mm; metacarpal Height ([2]; 0.35% iP + phytase 3400 U, n=5): 14.8 mm; metacarpal Length ([2]; 0.35% iP + phytase 3400 U, n=5): 60.5 mm; metacarpal Max. Displacement ([2]; 0.35% iP + phytase 3400 U, n=5): 8.9 mm; metacarpal Weight ([2]; 0.35% iP + phytase 3400 U, n=5): 19.2 g; metacarpal Width ([2]; 0.35% iP + phytase 3400 U, n=5): 15.0 mm; total bone area of femur [3, 6]: 45.8 ± 0.7 cm²; total bone area of metatarsal [3, 6]: 9 ± 0.2 cm²; increase of total bone area of femur ([3]; main effect, P<0.05): 5%; increase of total bone area of metatarsal ([3]; main effect, P<0.05): 7%; elevation of BMD of the two bones (metatarsal, femur) [3, 7]: 9 to 11%; enhancement of BMC in both bones (metatarsal, femur) [3, 7]: 14 to 15%; elevation of metatarsal concentration of Sr ([4]; main effect of phytase 2,000 U/kg, P<0.07): 11%; femur Ca concentration [4, 8]: 300.3 g/kg; femur Cr concentration [4, 8]: 7.2 mg/kg; femur Fe concentration [4, 8]: 7.2 mg/kg; femur Mg concentration [4, 8]: 5.3 g/kg; femur Mn concentration [4, 8]: 0.8 mg/kg; femur Na concentration [4, 8]: 8.3 g/kg; femur P concentration [4, 8]: 178.6 g/kg; femur S concentration [4, 8]: 1.0 g/kg; femur Sr concentration [4, 8]: 94.3 mg/kg; femur Zn concentration [4, 8]: 220.1 mg/kg; metatarsal Ca concentration [4, 8]: 187.4 g/kg; metatarsal Cr concentration [4, 8]: 20.5 mg/kg; metatarsal Fe concentration [4, 8]: 15.3 mg/kg; metatarsal Mg concentration [4, 8]: 3.5 g/kg; metatarsal Mn concentration [4, 8]: 2.0 mg/kg; metatarsal Na concentration [4, 8]: 7.4 g/kg; metatarsal P concentration [4, 8]: 91.8 g/kg; metatarsal S concentration [4, 8]: 0.9 g/kg; metatarsal Sr concentration [4, 8]: 73.5 mg/kg; metatarsal Zn concentration [4, 8]: 152.3 mg/kg
